In US20020098523A1 (CAMBRIDGE ANTIBODY TECHNOLOGY, published 2002):

B1: Mouse eotaxin (ligand, UniProt P48298 24-97, looked up)
chain: HPGSIPTSCCFIMTSKKIPNTLLKSYKRITNNRCTLKAIVFKTRLGKEICADPKKKWVQDATKHLDQKLQTPKP
notes: also called murine eotaxin
B2: CAT-213 (antibody, V domains shown)
VH: QVQLVQSGGGVVQPGRSLRLSCAASGFTFSSYGMHWVRQAPGKGLEWVAVISYDGSIKHYADSVKGRFTISRDNSKNTLYLQMNSLRTDDTAVYYCAGDTDYGDIDPWGQGTMVTVSS
VL: DIQMTQSPSSVSASVGDRVTITCRASQDISSWLAWYQQKPGKAPKLLIYAASSLQSGVPSRFSGSGSGTDFTLTISSLQPEDFATYYCQQASSFPSITFGQGTRLEIKR
notes: Expressed in NS0 cells and purified on Protein A

Key:
CAT-212 = biological target: T1, CAT-212; test: Flash Plate scintillation competition: unlabelled mouse eotaxin against [125I]eotaxin for coated CAT-212; mean of two estimates
T1 construct: Human scFv; IMAC-purified soluble scFv in the Western blot and Flash Plate assays; FPLC-purified monomeric scFv in the chemotaxis assay
Experimental: Flash Plate™ was prepared as described in Example 6. Eleven serial one in three dilutions of unlabelled human and mouse Eotaxin (R&D) in Assay Buffer and mixed with ¹²⁵I-Eotaxin prepared at an estimated concentration of 30 pM and 100 μl added to the wells in duplicate. The plate was sealed and incubated at room temperature for two hours, counted and the data processed as described in Example 6.

Human eotaxin [1] = biological target: T2, Human eotaxin (human, UniProt P51671 24-97, 125-iodine label in the Flash Plate assays; site not given); test: Flash Plate scintillation competition: soluble CAT-213 against coated CAT-212 (competitor) for [125I]eotaxin; mean of 4 estimates
T2 construct: treated as one molecule; also called eotaxin-1
Experimental: The Flash Plate assay was performed essentially as described in Example 6.

Mouse eotaxin = biological target: B1; test: cell-based or functional assay
Rhesus monkey eotaxin = Rhesus monkey eotaxin (rhesus monkey, UniProt Q8MIT7 24-97, limits assumed); test: cell-based or functional assay
Chain of Rhesus monkey eotaxin (Q8MIT7 24-97 limits assumed): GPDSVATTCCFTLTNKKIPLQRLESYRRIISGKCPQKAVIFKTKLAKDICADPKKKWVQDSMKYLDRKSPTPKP

Human eotaxin [2] = biological target: T2, Human eotaxin; test: cell-based or functional assay

Row | IC50 (CAT-212) [nM] | IC50 (Human eotaxin [1]) [nM] | geometric mean IC50, inhibition of mouse eotaxin-mediated chemotaxis of L1.2-CCR3 cells (Mouse eotaxin) [nM] | geometric mean IC50, inhibition of rhesus monkey eotaxin-mediated chemotaxis of L1.2-CCR3 cells (Rhesus monkey eotaxin) [nM] | IC50, inhibition of eotaxin-mediated chemotaxis of CCR3-transfected L1.2 cells (Human eotaxin [2]) [nM] | geometric mean IC50, inhibition of eotaxin-evoked shape change of human eosinophils (Human eotaxin [2]) [nM] | geometric mean IC50, inhibition of eotaxin-mediated chemotaxis of human eosinophils (Human eotaxin [2]) [nM] | Binder
1 | 296 |  |  |  |  |  |  | B1
2 |  | 0.0593 | 2630 | 303 | 0.7 | 0.714 | 1.53 | B2
